Laboratory results: patent US20210115447, “NUCLEIC ACID APTAMERS TARGETING LYMPHOCYTE ACTIVATION GENE 3 (LAG-3) AND USES THEREOF” (Oneness Biotech Co., Ltd., published 2021)

T1: LAG-3 (lymphocyte activation gene 3) (Homo sapiens, UniProt P18627 P18627:23-450)
T1 sequence: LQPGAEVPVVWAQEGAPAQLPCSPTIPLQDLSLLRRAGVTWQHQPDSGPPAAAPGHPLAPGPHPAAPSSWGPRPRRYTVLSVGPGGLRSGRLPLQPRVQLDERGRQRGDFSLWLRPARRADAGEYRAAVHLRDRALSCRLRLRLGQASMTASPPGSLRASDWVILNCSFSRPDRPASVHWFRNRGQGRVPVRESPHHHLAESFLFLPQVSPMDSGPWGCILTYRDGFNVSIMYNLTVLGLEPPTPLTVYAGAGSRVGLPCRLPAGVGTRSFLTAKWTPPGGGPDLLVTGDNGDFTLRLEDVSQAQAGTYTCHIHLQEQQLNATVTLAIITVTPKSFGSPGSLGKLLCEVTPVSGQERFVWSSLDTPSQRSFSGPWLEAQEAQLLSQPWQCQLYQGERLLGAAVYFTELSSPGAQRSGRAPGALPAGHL

B1: 5'Bio-B4 (ssDNA)
DNA: TCCCTACGGCGCTAACTGGGGGGGGTTAGTTCAATACATGCGGGCGGCCACCGTGCTACAAC
B2: 5'Bio-B4-SL4 (ssDNA)
DNA: CTGGGGGGGGTTAGTTCAATACATGCGGGCGGCCA
B3: 5'Bio-B4-SL3 (ssDNA)
DNA: GCTAACTGGGGGGGGTTAGTTCAATACATGCGGGC
B4: B8 (ssDNA)
DNA: TCCCTACGGCGCTAACTGGGGGGGGGTTAGACTTACACTCTTATTCGGCCACCGTGCTACAAC
B5: 5'Bio-B4-SL2 (ssDNA)
DNA: ACGGCGCTAACTGGGGGGGGTTAGTTCAATACATG

Assays:
[1] = target: T1, LAG-3 (lymphocyte activation gene 3); experiment: pulldown; His-LAG-3 on nickel beads, bound aptamer eluted and detected by qPCR; details: tags: His-tagged, attached to nickel coated beads or plate wells; label: 5'-biotin
[2] = target: T1, LAG-3 (lymphocyte activation gene 3); experiment: pulldown; His-LAG-3 on nickel beads, qPCR; details: tags: His-tagged, attached to nickel coated beads or plate wells; label: 5'-biotin
Experimental: (§1) To directly test binding of LAG-3 aptamers to LAG-3, in vitro binding assays were performed using His-tagged recombinant LAG-3 attached to nickel coated beads or nickel coated wells of a plate. Bound LAG-3 aptamers were eluted and detected by qPCR. Using the bead based assay, binding of aptamers B4 and B8 to recombinant LAG-3 increased in a concentration dependent manner. FIG. 1C. […] FIG. 1D.
To identify the minimal sequence of aptamer B4 that is involved in binding to LAG-3, various truncated versions of aptamer B4 were prepared and their binding activities to LAG-3 were investigated in the binding assays described herein, using R9R as a negative control. Aptamer sequences of these truncated versions of aptamer B4 and their dissociation constants (Kds) for binding to recombinant LAG-3 are shown in Table 2. Binding of aptamers B4, B4-SL2, B4-SL3, and B4-SL4 to recombinant LAG-3 increased in a concentration dependent manner. FIG. 1E. […] FIG. 1E.

[3] = target: T1, LAG-3 (lymphocyte activation gene 3); experiment: pulldown; concentration dependent; nickel beads, qPCR; details: tags: His-tagged, attached to nickel coated beads or plate wells
Experimental: as §1

Binder	Kd [2] [nM]	other results
B1	–	Kd [1]: 38.1 nM
B2	9.47	–
B3	10.7	–
B4	–	binding result [3]: binds
B5	8.05	–
